In patent US20230002480A1:

Legend:
Assay in all cases: cell-based or functional assay
[1] = target: HIV-1 Env of pseudovirus X2088_c9 (HIV-1)
[2] = target: HIV-1 Env of pseudovirus BF1266.431a (HIV-1)
[3] = target: HIV-1 Env of pseudovirus Q769.d22 (HIV-1)
[4] = target: HIV-1 Env of pseudovirus Ce704809221_1B3 (HIV-1)
[5] = target: HIV-1 Env of pseudovirus 0815.v3.c3 (HIV-1)
[6] = target: HIV-1 Env of pseudovirus BJOX015000.11.5 (HIV-1)
[7] = target: HIV-1 Env of pseudovirus 3415.v1.c1 (HIV-1)

Substance: PGT121 (antibody)
- IC50 [1]: 0.003 µg/mL
- IC80 [1]: 0.013 µg/mL
- IC50 [2]: > 50 µg/mL
- IC80 [2]: > 50 µg/mL
- IC50 [3]: > 50 µg/mL
- IC80 [3]: > 50 µg/mL
- IC50 [4]: 0.025 µg/mL
- IC80 [4]: 0.126 µg/mL
- IC50 [5]: 0.025 µg/mL
- IC80 [5]: 0.111 µg/mL
- IC50 [6]: > 50 µg/mL
- IC80 [6]: > 50 µg/mL

Substance: PGT128 (antibody)
- IC50, titer in TZM.bl cells [1]: > 50 µg/mL
- IC80, titer in TZM.bl cells [1]: > 50 µg/mL
- IC50 [2]: > 50 µg/mL
- IC80 [2]: > 50 µg/mL
- IC50 [3]: > 50 µg/mL
- IC80 [3]: > 50 µg/mL
- IC50 [4]: 0.026 µg/mL
- IC80 [4]: 0.072 µg/mL
- IC50, titer in TZM.bl cells [5]: 0.03 µg/mL
- IC80, titer in TZM.bl cells [5]: 0.137 µg/mL
- IC50, titer in TZM.bl cells [6]: 0.001 µg/mL
- IC80, titer in TZM.bl cells [6]: 0.011 µg/mL

Substance: PGT145 (antibody)
- IC50, titer in TZM.bl cells [1]: > 50 µg/mL
- IC80, titer in TZM.bl cells [1]: > 50 µg/mL
- IC50 [2]: 1.34 µg/mL
- IC80 [2]: 18.5 µg/mL
- IC50 [3]: 0.26 µg/mL
- IC80 [3]: 25.5 µg/mL
- IC50 [4]: 0.102 µg/mL
- IC80 [4]: 0.71 µg/mL
- IC50, titer in TZM.bl cells [5]: > 50 µg/mL
- IC80, titer in TZM.bl cells [5]: > 50 µg/mL
- IC50, titer in TZM.bl cells [6]: > 50 µg/mL
- IC80, titer in TZM.bl cells [6]: > 50 µg/mL

Substance: PGT151 (antibody)
- IC50, titer in TZM.bl cells [1]: > 50 µg/mL
- IC80, titer in TZM.bl cells [1]: > 50 µg/mL
- IC50 [2]: > 50 µg/mL
- IC80 [2]: > 50 µg/mL
- IC50 [3]: > 50 µg/mL
- IC80 [3]: > 50 µg/mL
- IC50 [4]: > 50 µg/mL
- IC80 [4]: > 50 µg/mL
- IC50, titer in TZM.bl cells [5]: > 50 µg/mL
- IC80, titer in TZM.bl cells [5]: > 50 µg/mL
- IC50, titer in TZM.bl cells [6]: > 50 µg/mL
- IC80, titer in TZM.bl cells [6]: > 50 µg/mL

Substance: VRC01 (antibody)
- IC50, titer in TZM.bl cells [1]: > 50 µg/mL
- IC80, titer in TZM.bl cells [1]: > 50 µg/mL
- IC50, titer in TZM.bl cells [2]: 0.07 µg/mL
- IC80, titer in TZM.bl cells [2]: 0.23 µg/mL
- IC50, titer in TZM.bl cells [3]: 0.08 µg/mL
- IC80, titer in TZM.bl cells [3]: 0.29 µg/mL
- IC50, titer in TZM.bl cells [4]: 0.55 µg/mL
- IC80, titer in TZM.bl cells [4]: 2.05 µg/mL
- IC50, titer in TZM.bl cells [5]: 0.06 µg/mL
- IC80, titer in TZM.bl cells [5]: 0.13 µg/mL
- IC50, titer in TZM.bl cells [7]: 0.06 µg/mL
- IC80, titer in TZM.bl cells [7]: 0.15 µg/mL

Substance: VRC07 (antibody)
- IC50, titer in TZM.bl cells [1]: > 50 µg/mL
- IC80, titer in TZM.bl cells [1]: > 50 µg/mL
- neutralization IC50 [2]: 0.032 µg/mL
- neutralization IC80 [2]: 0.117 µg/mL
- neutralization IC50 [3]: 0.018 µg/mL
- neutralization IC80 [3]: 0.087 µg/mL
- neutralization IC50 [4]: 0.273 µg/mL
- neutralization IC80 [4]: 1.14 µg/mL
- IC50, titer in TZM.bl cells [5]: 0.015 µg/mL
- IC80, titer in TZM.bl cells [5]: 0.051 µg/mL
- IC50, titer in TZM.bl cells [6]: 0.054 µg/mL
- IC80, titer in TZM.bl cells [6]: 0.479 µg/mL
- neutralization IC50 [7]: 0.036 µg/mL
- neutralization IC80 [7]: 0.152 µg/mL
